Experimental data as given in publication PMC12093943, “The TetR-like regulator Sco4385 and Crp-like regulator Sco3571 modulate heterologous production of antibiotics in Streptomyces coelicolor M512” (Applied and Environmental Microbiology, 2025).

Biological target: the molecule itself
Test: SEC-MALS; Superose 6 increase 10/300 GL, room temperature, running buffer 50 mM Tris-HCl (pH 7.5), 250 mM NaCl, flow rate 0.4 mL/minute; MiniDAWN Treos

B1: TetR-family regulator Sco4385 (His-tagged) (natural protein, Streptomyces coelicolor M512, UniProt Q9K3V9 1-202, looked up)
chain: MNAADRTERVPKQDRSRATRQRLLEAAVACLAERGWAGSTVSVVAEHAGVSRGAAQHHFPTREDLFTAAVEYVAEERSIALRALFPEGAAADDRRAVVAALVDLYTGPLFRAALHLWVAASNEEQLRGRVTELEARVGRESHRIAVELLGADETRPGARETVQGLLDMARGLGLANLLTDDGARRERVVEQWARLLDAALAQ
notes: TetR-family regulator Sco4385 of Streptomyces coelicolor M512; Expressed from the vector pHis8 (plasmid pSW21); No tag cleavage is described; also called TFR Sco4385; TetR-type regulator Sco4385; source: E. coli BL21 DE3, purified (Ni-NTA chromatography, size exclusion chromatography)
stoichiometry N: 2
